Assay results: US20070189963A1 (EIDGENOSSISCHE TECHNISCHE HOCHSCHULE ZURICH, published 2007)
Each block holds one molecule with its values, some of them ahead of it.

Legend:
hen egg lysozyme (hen) [1] = target: hen egg lysozyme (hen) (UniProt P00698); experiment: 125I-labeled scFv loaded on an antigen column, counting of flow-through and eluate
hen egg lysozyme (hen) [2] = target: hen egg lysozyme (hen) (UniProt P00698); experiment: affinity chromatography of the Cy5 conjugate on an antigen column
[3] = target: T1, recombinant ED-B domain of fibronectin (UniProt P02751 1266-1356, biotinylated (biotin disulfide N-hydroxysuccinimide ester) in ELISA and ECL competition; Cy5 at the N-terminal extremity in the band-shift assay); experiment: Kd = koff/kon, koff from ECL competition, kon from BIAcore
T1 construct: domain: ED-B; Recombinant fragment as in Carnemolla et al. 1996; also called biotinylated ED-B; ED-B-biotin
Description: (§1) J. Cancer, 68, 397-405). After loading, the column was washed with 50 ml of equilibration buffer (PBS, 1 mM EDTA, 0.5 M NaCl). Antibody fragments were then eluted with triethylamine 100 mM, immediately neutralised with 1M Hepes, pH 7, and dialysed against PBS, Affinity measurements by BlAcore were performed with purified antibodies as described (Neri et al. (1997). Nature Biotechnol., 15 1271-1275) [FIG. 4]. Band-shift analysis was performed as described (Neri et al. (1996). Nature Biotechnology, 14, 385-390), using recombinant ED-B fluorescently labeled at the N-terminal extremity (Carnemolla et al. (1996). lnt. J. Cancer, 68, 397-405, Neri et al. (1997). Nature Biotechnol., 15 1271-1275) with the infrared fluorophore Cy5 (Amersham) [FIG. 4]. […] We therefore peformed measurements of the kinetic dissociation constant koff by competition experiments (Neri et al. (1996), Trends in Biotechnol., 14, 465-470) [FIG. 4]. […] Streptavidin-coated dynabeads, diluted in Origen Assay Buffer (Deaver, D. R. (1995). Nature, 377, 758-760) were then added (20 μl, 1 mg/ml), and the resulting mixtures analysed with a ORIGEN Analyzer (IGEN Inc. Gaithersburg, Md. USA). […]

[4] = target: T1, recombinant ED-B domain of fibronectin; experiment: SPR (BIAcore), purified scFv
Description: Meth., 206, 171-182) and affinity purified onto a CNBr-activated sepharose column (Pharmacia, Uppsala, Sweden), which had been coupled with 10 mg of ED-B containing 7B89 recombinant protein (Carnemolla et al. (1996). lnt. J. Cancer, 68, 397-405). After loading, the column was washed with 50 ml of equilibration buffer (PBS, 1 mM EDTA, 0.5 M NaCl). Antibody fragments were then eluted with triethylamine 100 mM, immediately neutralised with 1M Hepes, pH 7, and dialysed against PBS, Affinity measurements by BlAcore were performed with purified antibodies as described (Neri et al. (1997). Nature Biotechnol., 15 1271-1275) [FIG. 4]. Band-shift analysis was performed as described (Neri et al. (1996). Nature Biotechnology, 14, 385-390), using recombinant ED-B fluorescently labeled at the N-terminal extremity (Carnemolla et al. (1996). lnt. J. Cancer, 68, 397-405, Neri et al. (1997). Nature Biotechnol., 15 1271-1275) with the infrared fluorophore Cy5 (Amersham) [FIG. 4]. […] We therefore peformed measurements of the kinetic dissociation constant koff by competition experiments (Neri et al. (1996), Trends in Biotechnol., 14, 465-470) [FIG. 4]. […] Streptavidin-coated dynabeads, diluted in Origen Assay Buffer (Deaver, D. R. (1995). Nature, 377, 758-760) were then added (20 μl, 1 mg/ml), and the resulting mixtures analysed with a ORIGEN Analyzer (IGEN Inc. Gaithersburg, Md. USA). […]

[5] = target: T1, recombinant ED-B domain of fibronectin; experiment: SPR (BIAcore)
Description: After loading, the column was washed with 50 ml of equilibration buffer (PBS, 1 mM EDTA, 0.5 M NaCl). Antibody fragments were then eluted with triethylamine 100 mM, immediately neutralised with 1M Hepes, pH 7, and dialysed against PBS, Affinity measurements by BlAcore were performed with purified antibodies as described (Neri et al. (1997). Nature Biotechnol., 15 1271-1275) [FIG. 4]. Band-shift analysis was performed as described (Neri et al. (1996). Nature Biotechnology, 14, 385-390), using recombinant ED-B fluorescently labeled at the N-terminal extremity (Carnemolla et al. (1996). lnt. J. Cancer, 68, 397-405, Neri et al. (1997). Nature Biotechnol., 15 1271-1275) with the infrared fluorophore Cy5 (Amersham) [FIG. 4]. […] We therefore peformed measurements of the kinetic dissociation constant koff by competition experiments (Neri et al. (1996), Trends in Biotechnol., 14, 465-470) [FIG. 4]. […] Streptavidin-coated dynabeads, diluted in Origen Assay Buffer (Deaver, D. R. (1995). Nature, 377, 758-760) were then added (20 μl, 1 mg/ml), and the resulting mixtures analysed with a ORIGEN Analyzer (IGEN Inc. Gaithersburg, Md. USA).

[6] = target: T1, recombinant ED-B domain of fibronectin; experiment: competition of scFv-(ED-B-biotin) complex with unbiotinylated ED-B, electrochemiluminescent detection (Origen)
Description: as §1

T1 sequence (P02751 1266-1356 limits assumed): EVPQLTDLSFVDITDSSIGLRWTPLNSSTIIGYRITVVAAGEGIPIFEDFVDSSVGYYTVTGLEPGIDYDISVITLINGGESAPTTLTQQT
Sequence of hen egg lysozyme (hen) (P00698 19-147): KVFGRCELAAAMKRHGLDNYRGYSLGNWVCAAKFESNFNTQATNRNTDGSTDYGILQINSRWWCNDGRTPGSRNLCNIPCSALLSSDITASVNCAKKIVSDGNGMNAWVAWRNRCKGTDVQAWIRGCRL

- immunoreactivity (hen egg lysozyme (hen) [1]): 80%
Molecule: scFv(D1.3)

- immunoreactivity (hen egg lysozyme (hen) [2]): > 78%
Molecule: scFv(HyHEL-10)

- Kd [3]: 0.054 nM
- kon [4]: 110000 M⁻¹ s⁻¹
- koff [5]: 9.6e-05 s⁻¹
- koff [6]: 6e-06 s⁻¹
B1: scFv L19 (high-affinity anti-ED-B human scFv antibody fragment) (scFv)
scFv: EVQLLESGGGLVQPGGSLRLSCAASGFTFSSFSMSWVRQAPGKGLEWVSSISGSSGTTYYADSVKGRFTISRDNSKNTLYLQMNSLRAEDTAVYYCAKPFPYFDYWGQGTLVTVSSGDGSSGGSGGASTGEIVLTQSPGTLSLSPGERATLSCRASQSVSSSYLAWYQQKPGQAPRLLIYYASSRATGIPDRFSGSGSGTDFTLTISRLEPEDFAVYYCQQTGRIPPTFGQGTKVEIKDDDSDDDYKDDDDKHHHHHH
notes: T0005 (VH, linker, VL) is not labelled L19 itself; also called antibody L19
